In patent publication US20250161505A1, “CD206 Targeted Peptide Conjugates and Methods of Using the Same” (Riptide Bioscience, Inc., priority 2022, published 2025):
Where a SMILES comes first, the peptide text is derived from it. The star is where a group is joined. DOTA = O=C(O)CN1CCN(CC(=O)O)CCN(CC(=O)*)CCN(CC(=O)O)CC1

Experiments:
[1] = tested on: PDL1 unresponsive melanoma; details: PDL1 unresponsive melanoma murine models; cited from earlier work
[2] = tested on: tumor associated macrophages (TAMs); details: cited from earlier work
CD206 macrophages = details: through interactions with CD206 macrophages; cited from earlier work
syngeneic 4T1 tumors = test: in vivo; parameters: species or system BALB/c mice; details: mouse
Procedure: (§1) 4T1 cells, a mouse breast cancer cell line (ATCC), and CT26 cells, a mouse colon carcinoma cell line (ATCC), were cultured in RPMI-1640 medium (ATCC) with 10 percent fetal bovine serum and 0.1 percent gentamicin at 37 degrees Celsius with 5 percent CO2. Wild-type BALB/c mice (Charles River) were used for syngeneic 4T1 and CT26 tumor models and were subcutaneously injected in the shoulder with 200,000 4T1 cells and 2×10^6 CT26 cells (with Matrigel). Tumors were allowed to grow for 10 days. Dynamic imaging studies were performed with a GNEXT small animal PET/CT (SOFIE). […] After 45 minutes, a high-resolution CT scan was obtained for anatomical reference. […] After 1 hour, a high-resolution CT scan was obtained for anatomical reference. During imaging, mice were anesthetized with 2.5 percent isoflurane/oxygen. The PET data was reconstructed into 5-minute time frames. Regions of interest (ROI) were drawn based on the CT anatomical guidelines. The mean standardized uptake value (SUV) was quantified using VivoQuant software with the equation: Where C is the activity concentration in tissue, dose is the injected dose, and weight is the body weight of the mouse. Statistical analysis was conducted with Graphpad Prism software.

syngeneic CT26 tumors = test: in vivo; parameters: species or system BALB/c mice; details: mouse
Procedure: as §1

in vivo [3] = test: in vivo; parameters: species or system BALB/c mice; details: BALB/c, mouse, total radioactivity
Procedure: as §1

[4] = format: in vitro ADME; details: mouse, serum
Procedure: Labeling of RP-832 and MART-1 with ^68Ga was accomplished by adding 10 μg of peptide to 500 μCi of ^68GaCl3 in 50 μL of 1 M sodium acetate buffer (pH 4.5). The reactions were incubated in a thermomixer at 95 degrees Celsius for 14 minutes with 300 rpm agitation. Incorporation of the ^68Ga was determined by radio-High Performance Liquid Chromatography (HPLC) immediately after the reaction. Analysis was performed using a C-18 column. The gradient elution system utilized mobile phase A (100% water 0.1% TFA) and mobile phase C (Acetonitrile containing 0.1% TFA) with a flow rate of 1.0 mL/min. The gradient started with 100% A and was increased to 100% C over 6.67 minutes and then returned to the initial gradient conditions within 4.66 minutes. […] The mixtures were incubated at 37 degrees Celsius with 400 rpm agitation up to three hours. Aliquots were removed at different time points (30 minutes, 1, 2, 3 h) to evaluate stability and analyzed using radio-HPLC as described above. All experiments were completed in triplicate.

in vivo [5] = test: in vivo; parameters: species or system BALB/c mice; details: BALB/c, mouse, total radioactivity, average percent injected dose per gram of organ
Procedure: 4T1 cells, a mouse breast cancer cell line (ATCC), and CT26 cells, a mouse colon carcinoma cell line (ATCC), were cultured in RPMI-1640 medium (ATCC) with 10 percent fetal bovine serum and 0.1 percent gentamicin at 37 degrees Celsius with 5 percent CO2. Wild-type BALB/c mice (Charles River) were used for syngeneic 4T1 and CT26 tumor models and were subcutaneously injected in the shoulder with 200,000 4T1 cells and 2×10^6 CT26 cells (with Matrigel). Tumors were allowed to grow for 10 days. Following the [^68Ga]832c imaging studies, animals were euthanized, and organs of interest removed and assessed for radioactivity. For all biodistribution studies, specific uptake for each tissue was measured with background and decay correction and expressed as percent injected dose per gram of tissue (% ID/g) as calculated by normalization to the total activity injected.

Recombinant human CD206 = biological target: T1, Recombinant human CD206 (Homo sapiens, UniProt P22897); test: Surface plasmon resonance (Biacore T200), immobilized CD206; format: binding; details: all concentrations (0.5 uM-10 uM)
T1 construct: purchased R&D systems 2534-MR-050
T1 sequence (P22897 19-1456): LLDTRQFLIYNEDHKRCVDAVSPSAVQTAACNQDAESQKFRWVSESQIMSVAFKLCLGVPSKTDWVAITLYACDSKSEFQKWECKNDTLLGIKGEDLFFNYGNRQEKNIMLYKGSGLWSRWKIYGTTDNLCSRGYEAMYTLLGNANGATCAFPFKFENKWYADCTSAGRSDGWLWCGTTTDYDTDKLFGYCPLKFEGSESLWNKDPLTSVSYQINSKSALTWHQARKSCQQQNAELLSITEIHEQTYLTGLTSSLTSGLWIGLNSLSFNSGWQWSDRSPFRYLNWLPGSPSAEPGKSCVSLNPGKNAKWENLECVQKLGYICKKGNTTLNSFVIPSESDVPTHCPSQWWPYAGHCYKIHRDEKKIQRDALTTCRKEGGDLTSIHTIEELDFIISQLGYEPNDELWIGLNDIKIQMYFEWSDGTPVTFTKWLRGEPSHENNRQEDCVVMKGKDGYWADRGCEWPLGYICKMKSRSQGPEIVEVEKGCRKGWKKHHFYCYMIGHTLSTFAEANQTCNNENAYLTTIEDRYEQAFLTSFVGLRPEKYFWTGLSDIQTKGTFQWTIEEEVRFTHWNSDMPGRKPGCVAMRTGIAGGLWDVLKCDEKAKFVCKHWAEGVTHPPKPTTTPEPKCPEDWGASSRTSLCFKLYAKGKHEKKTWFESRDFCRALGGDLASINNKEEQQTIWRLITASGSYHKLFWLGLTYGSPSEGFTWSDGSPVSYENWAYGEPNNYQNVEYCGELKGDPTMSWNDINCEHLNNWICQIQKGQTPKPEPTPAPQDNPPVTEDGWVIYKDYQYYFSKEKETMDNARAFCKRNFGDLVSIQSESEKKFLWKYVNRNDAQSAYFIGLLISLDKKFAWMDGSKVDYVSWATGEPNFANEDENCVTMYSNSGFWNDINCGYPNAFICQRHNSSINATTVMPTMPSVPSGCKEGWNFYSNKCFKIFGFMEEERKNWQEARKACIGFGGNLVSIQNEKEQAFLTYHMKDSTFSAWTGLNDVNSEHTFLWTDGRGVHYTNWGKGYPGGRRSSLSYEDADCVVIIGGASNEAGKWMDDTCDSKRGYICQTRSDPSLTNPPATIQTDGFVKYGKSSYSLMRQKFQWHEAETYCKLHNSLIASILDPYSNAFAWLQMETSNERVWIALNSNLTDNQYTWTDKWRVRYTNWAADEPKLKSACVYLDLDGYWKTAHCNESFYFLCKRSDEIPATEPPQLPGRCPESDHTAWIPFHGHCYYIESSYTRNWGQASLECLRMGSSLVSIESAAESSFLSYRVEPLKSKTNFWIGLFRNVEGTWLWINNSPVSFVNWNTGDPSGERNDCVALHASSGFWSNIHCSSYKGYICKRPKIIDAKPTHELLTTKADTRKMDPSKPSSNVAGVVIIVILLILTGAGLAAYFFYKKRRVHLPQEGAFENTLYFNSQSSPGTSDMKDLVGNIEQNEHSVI
Procedure: All SPR experiments were carried out using a Biacore T200 Biosensor instrument (GE Health Life Sciences, Piscataway, NJ). CM5 sensor chips, amine coupling reagents, and running buffers used in the binding analysis were obtained from Cytivalifesciences (Marlborough, MA).
Recombinant human CD206 was purchased from R&D systems (Catalog #2534-MR-050). CD206 protein was immobilized onto a CM5 sensor chip surface via standard amine coupling chemistry, using HBS-P+ running buffer (10 mM HEPES, [pH 7.4], 150 mM NaCl, and 0.05% Surfactant 20) at 25° C., as per manufacturer recommendation (Cytiva, Marlborough, MA). Briefly, carboxyl groups on the sensor chip flow cell surface (flow cell 2) were activated by injecting an equal mixture of 200 mM N-hydroxysuccinimide (NHS) and 50 mM 1-ethyl-3-(3-dimethylaminopropyl) carbodiimide hydrochloride) (EDC) at a flow rate of 10 μl/min. CD206 (25 μg/mL) was then diluted in 10 mM sodium acetate buffer pH 5.0 and injected over the surface at a flow rate of 10 μl/min until a level of 5000 resonance units (RU) was reached. This was followed by a 7 min injection of 1 M ethanolamine (pH 8) to block excessive reactive esters and wash away any non-covalently bound CD206. A blank flow cell surface (flow cell 1) was similarly activated with no protein injection, and used as a reference to subtract non-specific binding and bulk refractive index. […]

For RWKFGGFKWR [RP-832c], the “effect on tumor resistance” value [1] is listed as “shown promise in inhibiting tumor resistance”, the “effect on population of tumor associated macrophages” value [2] is listed as “shift the population of tumor associated macrophages (TAMs) from M2 (pro-tumor) towards a M1 phenotype (anti-tumor)” and the “effect on bleomycin induced pulmonary fibrosis” value (CD206 macrophages) is listed as “inhibit bleomycin induced pulmonary fibrosis”.
With `N=C(N)NCCC[C@H](NC(=O)[C@H](Cc1c[nH]c2ccccc12)NC(=O)[C@H](CCCCN)NC(=O)[C@H](Cc1ccccc1)NC(=O)CNC(=O)CNC(=O)[C@H](Cc1ccccc1)NC(=O)[C@H](CCCCN)NC(=O)[C@H](Cc1c[nH]c2ccccc12)NC(=O)[C@H](CCCNC(=N)N)NC(=O)CN1CCN(CC(=O)O)CCN(CC(=O)O)CCN(CC(=O)O)CC1)C(=O)O` [[^68Ga]RP832c, metal not drawn] ({DOTA}-RWKFGGFKWR-OH) the “highest signal in MIP images” value (syngeneic 4T1 tumors) was “bladder”, the “highest signal in maximum intensity projections (MIPs)” value (syngeneic CT26 tumors) was “kidneys and bladder” and the SUV at 0.25 h (in vivo [3]) was 0.25 SUV. For the same compound, the SUV at 40 min (in vivo [3]) was 0.5 SUV, the “free ^68Ga (^68Ga remained complexed)” value [4] was “less than one percent free ^68Ga” and the tissue uptake at 1.5 h (in vivo [5]; 15 uCi, liver) was 1.66 %ID/g. The tissue uptake at 1.5 h (in vivo [5]; 15 uCi, spleen) was 0.67 %ID/g, the tissue uptake at 1.5 h (in vivo [5]; 15 uCi, tumor) was 0.4 %ID/g and the tissue uptake at 1.5 h (in vivo [5]; liver) was 1.46 %ID/g. It also gave a tissue uptake at 1.5 h (in vivo [5]; spleen) of 0.91 %ID/g and a tissue uptake at 1.5 h (in vivo [5]; tumor) of 0.57 %ID/g.
With “DOTA-MART-1: MART-1 peptide with DOTA, not radiolabeled, control in SPR” the binding sensorgram (Recombinant human CD206) was “no binding”.
